{
  "source": "paper PMC5419587",
  "about": "(Virology, 2017)",
  "molecular_target": "T1, SAMD9 1-385, purified (human, UniProt Q5K651 1-385)",
  "T1 sequence (looked up)": "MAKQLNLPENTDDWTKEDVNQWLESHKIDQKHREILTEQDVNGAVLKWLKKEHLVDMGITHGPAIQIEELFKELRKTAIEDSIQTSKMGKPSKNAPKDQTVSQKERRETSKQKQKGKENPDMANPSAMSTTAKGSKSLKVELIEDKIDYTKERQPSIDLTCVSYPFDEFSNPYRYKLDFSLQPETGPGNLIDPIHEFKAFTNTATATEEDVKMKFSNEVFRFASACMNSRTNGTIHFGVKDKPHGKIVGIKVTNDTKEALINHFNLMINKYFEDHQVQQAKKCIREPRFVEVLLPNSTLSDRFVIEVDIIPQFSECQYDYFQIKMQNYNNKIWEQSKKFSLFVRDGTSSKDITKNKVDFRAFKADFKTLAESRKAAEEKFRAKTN",
  "assay": "SPR",
  "data": [
    {"binder": "MYXV M062 protein, purified (natural protein) MGVQHKLDIFLVSEGIAIKEANLLKGDSYGCTIKIKLDKEKTFKFVIVLEPEWIDEIKPIYMKVNDESVELELDYKDAIKRIYSAEVVLCSDSVINLFSDVDVSYTCEYPTIKVNTIKKYYSVQNRGMTYVHIESPINTKDKCWFVEKNGWYEDRTHS", "values": [
      {"measurement": "Kd", "result": "10 ± 5", "unit": "µM"}
    ]}
  ]
}
